From patent publication US20120322150A1, “Mechanism and Method for Regulating Glycogen Synthase Kinase 3 (GSK3)-Related Kinases” (CARNEGIE INSTITUTION OF WASHINGTON, priority 2009, published 2012)
Each block holds one molecule with its values, some of them ahead of it.

Key:
[1] = test system: phospho-myelin basic protein; assay: In vitro phosphatase assay using phospho-myelin basic protein; format: biochemical
Experimental: In vitro phosphatase assay using phospho-myelin basic protein was performed according to manufacturer's protocol (New England Biolab. Beverly, Mass.). To examine tyrosine phosphatase activity of BSU 1, 20 mM p-nitrophenyl phosphate was incubated with MBP-BSD) in 50 uL of reaction buffer (50 mM Tris. pH 7.2, 20 mM NaCl, 5 mM DTT, 10 RIM MgCl2). The reaction was quenched by the addition of 100 uL of 0.5 M NaOH after incubation at 30° C. for 1 hr. p-Nitrophenol production was determined by measuring A405 (extinction coefficient, e=1.78×104 M-tCm J).

PP1 = biological target: T1, PP1 (Homo sapiens, UniProt P36873); assay: Inhibition of PP1 activity on BIN2; format: biochemical, mammalian
T1 construct: made in house; host or cells: E. coli
T1 sequence (P36873 whole entry): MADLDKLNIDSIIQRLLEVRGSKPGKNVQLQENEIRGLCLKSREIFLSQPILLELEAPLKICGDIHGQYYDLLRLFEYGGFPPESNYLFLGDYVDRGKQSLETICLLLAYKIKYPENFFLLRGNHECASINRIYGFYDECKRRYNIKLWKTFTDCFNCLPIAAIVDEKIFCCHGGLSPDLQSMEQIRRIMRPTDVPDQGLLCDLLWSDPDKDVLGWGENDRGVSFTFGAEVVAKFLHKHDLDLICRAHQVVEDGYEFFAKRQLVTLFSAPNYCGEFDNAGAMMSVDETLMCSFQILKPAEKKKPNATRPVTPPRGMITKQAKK
Experimental: It was next examined whether the mammalian homolog to BSU1, PP1, would dephosphorylate BIN2. A GST-tagged BIN2 was isolated from cells and incubated with PP1 purified from E. coli cells expressing the phosphatase.

[2] = test system: phosphorylated BZR1 and BZR2; assay: In vitro dephosphorylation of pre-phosphorylated BZR1 and BZR2; format: biochemical, Arabidopsis; details: added after BIN2 and ATP were removed
Experimental: MBP-BZR1 and GST-BIN2 proteins were expressed and purified from E. coli and maltose or glutathione was removed from the proteins by ultrafiltration using Centricon 30 (Amicon Ultra, Millipore, Billerica, Mass.). To prepare fully phosphorylated BZR1 proteins, MBP-BZR1 protein was incubated with GST BIN2 as 1 to 1 ratio in the kinase buffer containing 100 μM ATP at 30° C. overnight. The protein mixture was incubated with glutathione Sepharose beads to remove GSTBIN2, then with amylose beads to purify MBP-pBZR1. Partially phosphorylated 32Plabeled pBZR1 and pBZR2 were prepared by the same method but MBP-BZR1 or MBP-BZR2 was incubated with GST BIN2 at a 15 to 1 ratio for 3 hrs in the presence of […] 32P-γATP. For dephosphorylation, GST-BSU1 was incubated with fully phosphorylated MBP-pBZR1 and 32P-MBP-pBZR1 or 32 P-MBP-pBZR2 for 12 or 16 Ins, […]

BIN2 = biological target: T2, BIN2 (Arabidopsis thaliana, UniProt Q39011); assay: In vitro BIN2 inhibition assay (BIN2 phosphorylation of BZR1); format: biochemical
T2 construct: made in house; host or cells: E. coli
T2 sequence (Q39011 1-380): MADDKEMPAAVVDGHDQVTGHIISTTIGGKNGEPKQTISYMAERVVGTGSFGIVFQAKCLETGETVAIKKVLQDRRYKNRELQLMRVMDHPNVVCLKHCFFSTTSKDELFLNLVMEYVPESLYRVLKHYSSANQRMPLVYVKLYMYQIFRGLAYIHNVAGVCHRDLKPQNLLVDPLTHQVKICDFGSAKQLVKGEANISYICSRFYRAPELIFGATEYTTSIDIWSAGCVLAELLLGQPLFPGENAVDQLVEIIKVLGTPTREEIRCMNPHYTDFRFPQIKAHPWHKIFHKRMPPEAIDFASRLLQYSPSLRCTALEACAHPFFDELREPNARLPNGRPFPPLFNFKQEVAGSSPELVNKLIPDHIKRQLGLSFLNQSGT
Experimental: In vitro BIN2 inhibition assays were performed by 3 hrs co-incubation of MBP-BZR1, GST BIN2, GST BSU1 and ^32P-γATP or pre-incubation of GST-BIN2 with GST-BSU1 for various time followed by adding MBP-BZR1 and 32P-γATP. The examine activities of partial BSU1, N-terminal Kelch (1-363th amino acid) and C-terminal phosphatase (364-793th amino acid) region were used. GST, GST-BSU1, GSTBSU1-Ketch and GST-BSU1-phosphatase were pre-incubated with GST-BIN2 for 1 hr, and further incubated with MBP-BZR1 and ^32P-γATP for 3 hrs.
To test activities of BSU1-YFP, anti-GFP antibody-Protein A beads were used to immunoprecipitate BSU1-YFP from extracts of BSU1-YFP transgenic plants, and non-transgenic wild type plants were used as control. The beads were incubated with GST-BIN2 or GST bin2-1 for 1 hr, and then the beads were removed. The BSU1-treated GST-BIN2 or GST-bin2-1 was further incubated with MBP-BZR1 and ^32P-γATP for 3 hrs.

B1: BSU1-D5ION: mutant BSU1, Asp510 to Asn, with reduced phosphatase activity (protein, UniProt Q9LR78 1-793, looked up, variant D510N)
Serine/threonine-protein …: MAPDQSYQYPSPSYESIQTFYDTDEDWPGPRCGHTLTAVFVNNSHQLILFGGSTTAVANHNSSLPEISLDGVTNSVHSFDVLTRKWTRLNPIGDVPSPRACHAAALYGTLILIQGGIGPSGPSDGDVYMLDMTNNKWIKFLVGGETPSPRYGHVMDIAAQRWLVIFSGNNGNEILDDTWALDTRGPFSWDRLNPSGNQPSGRMYASGSSREDGIFLLCGGIDHSGVTLGDTYGLKMDSDNVWTPVPAVAPSPRYQHTAVFGGSKLHVIGGILNRARLIDGEAVVAVLDTETGEWVDTNQPETSASGANRQNQYQLMRRCHHAAASFGSHLYVHGGIREDVLLDDLLVAETSQSSSPEPEEDNPDNYMLLDDYLMDEPKPLSSEPEASSFIMRSTSEIAMDRLAEAHNLPTIENAFYDSAIEGYVPLQHGAETVGNRGGLVRTASLDQSTQDLHKKVISTLLRPKTWTPPANRDFFLSYLEVKHLCDEVEKIFMNEPTLLQLKVPIKVFGNIHGQYGDLMRLFHEYGHPSVEGDITHIDYLFLGDYVDRGQHSLEIIMLLFALKIEYPKNIHLIRGNHESLAMNRIYGFLTECEERMGESYGFEAWLKINQVFDYLPLAALLEKKVLCVHGGIGRAVTIEEIENIERPAFPDTGSMVLKDILWSDPTMNDTVLGIVDNARGEGVVSFGPDIVKAFLERNGLEMILRAHECVIDGFERFADGRLITVFSATNYCGTAQNAGAILVIGRDMVIYPKLIHPHPPPISSSEEDYTDKAWMQELNIEMPPTPARGESSE
phosphatase activity of the wild type protein ([1]; phospho-myelin basic proteins as a substrate): about 15%

B2: PP2: PP1 inhibitor, protein phosphatase inhibitor 2 (protein, UniProt P41236 2-205, looked up)
Protein phosphatase inhibitor …: AASTASHRPIKGILKNKTSTTSSMVASAEQPRGNVDEELSKKSQKWDEMNILATYHPADKDYGLMKIDEPSTPYHSMMGDDEDACSDTEATEAMAPDILARKLAAAEGLEPKYRIQEQESSGEEDSDLSPEEREKKRQFEMKRKLHYNEGLNIKLARQLISKDLHDDDEDEEMLETADGESMNTEESNQGSTPSDQQQNKLRSS
enzymatic activity of PP1 on BIN2 (PP1): inhibited the enzymatic activity of the PP1 phosphatase on BIN2

B3: BSL1: closest homolog of BSU1 (SEQ ID NO: 28) (protein, listed as Arabidopsis thaliana)
chain: MGSKPWLHPAPQYKTLETFWDDEDDAPGPRCAHTLTAVAATKTHGPRLILFGGATAIEGGSSSVPGIRLAGVTNTVHSYDILTRKWTRLKPAGEPPSPRAAHAAAAVGTMVVFQGGIGPAGHSTDDLYVLDMTNDKFKWHRVVVQGDGPGPRYGHVMDLVSQRYLVTVTGNDGKRALSDAWALDTAQKPYVWQRLNPDGDRPSARMYASGSARSDGMFLLCGGRDTLGAPLGDAYGLLMHRNGQWEWTLAPGVAPSPRYQHAAVFVGARLHVSGGVLRGGRVIDAEASVAVLDTAAGVWLDRNGQVTSARGSKGQIDQDPSFELMRRCRHGAASVGIRIYVHGGLRGDVLLDDFLVAENSTFQSDISSPLLASDRTQQSSTPRFSYAARPPSGSEPSFSMSEGLSLDENSLEKLTEASAAEAEVASSVWRAAQLGAGTLDEEPSTSDASSPIVESTTDGTANEGDVRLHPRAVVVAKETVGSLGGMVRQLSLDQFQNESRRMVPMNNSDVPQPTKKFTRQKSPQGLHKKVIAALLRPRNWKPPGNRKFFLDSYEVGELCYAAEQIFMHEQTVLQLKAPIKVFGDLHGQFGDLMRLFDEYGFPSTAGDITYIDYLFLGDYVDRGQHSLETITLLLALKIEYPENVHLIRGNHEAADINALFGFRLECIERMGENDGIWAWTRFNQLFNYLPLAALIENKIICMHGGIGRSISTVEQIEKIERPITMDAGSLVLMDLLWSDPTENDSIEGLRPNARGPGLVTFGPDRVTEFCKRNKLQLIIRAHECVMDGFERFAQGQLITLFSATNYCGTANNAGAILVVGRGLVIVPKLIHPLPPPILSPENSPEHSGDDAWMQELNIQRPPTPTRGRPQPDFDRSSLAYI
dephosphorylation of pre-phosphorylated BZR1 / BZR2 [2]: do not dephosphorylate phosphorylated BZR1 and BZR2 | phosphatase activity on phosphorylated myelin basic protein ([1]; protein purified from E.coli, metal ions 1 mM): showed manganese-dependent phosphatase activities | BIN2 phosphorylation of BZR1, co-incubation (BIN2; co-incubated with BIN2 and BZR1, 32P-γATP, 3 hrs): inhibit B1N2 phosphorylation of BZR1 and BZR2

BIN2 phosphorylation of BZR1, pre-incubation (BIN2; pre-incubated with BIN2 before adding BZR1): showed no effect
B4: Kelch repeat domain: N-terminal Kelch (1-363th amino acid) region of BSU1 (protein)
chain: MAPDQSYQYPSPSYESIQTFYDTDEDWPGPRCGHTLTAVFVNNSHQLILFGGSTTAVANHNSSLPEISLDGVTNSVHSFDVLTRKWTRLNPIGDVPSPRACHAAALYGTLILIQGGIGPSGPSDGDVYMLDMTNNKWIKFLVGGETPSPRYGHVMDIAAQRWLVIFSGNNGNEILDDTWALDTRGPFSWDRLNPSGNQPSGRMYASGSSREDGIFLLCGGIDHSGVTLGDTYGLKMDSDNVWTPVPAVAPSPRYQHTAVFGGSKLHVIGGILNRARLIDGEAVVAVLDTETGEWVDTNQPETSASGANRQNQYQLMRRCHHAAASFGSHLYVHGGIREDVLLDDLLVAETSQSSSPEPEEDNP
modifications: left off: a dimerising Fc or GST
notes: N-terminal Kelch (1-363th amino acid) region of BSU1
